According to the RNAGym collection of RNA variant scans (doi:10.7554/elife.80360):

B1: HDV Ribozyme (parent)
chain: GGCCGGCAUGGUCCCAGCCUCCUCGCUGGCGCCGGCUGGGCAACAUUCCGAGGGGACCGUCCCCUCGGUAAUGGCGAAUGGGACCCA

Variants of: B1
Experiment: self-cleavage, relative activity (ratio to wild type); higher = more cleavage; co-transcriptional

Variant	self-cleavage
GGCCGGCAUGGUCCCAGCCUCCUCGCUGGCGCCAGCUGGGCAACAUUCAGAGGGGACCGUCCCCUCGGUAAUGGCGAAUGGGACCCA [G34A C49A]	0.0852
GGGCGGCAAGGUCCCAGCCUCCUCGCUGGCGCCGGCUGGGCAACAUUCCGAGGGGACCGUCCCCUCGGUAAUGGCGAAUGGGACCCA [C3G U9A]	0.799
GGCCGGCAUGCUCCCAGCCUCCUUGCUGGCGCCGGCUGGGCAACAUUCCGAGGGGACCGUCCCCUCGGUAAUGGCGAAUGGGACCCA [G11C C24U]	0.219
GGCCGGCUUGGUCCCAGCCUCCUCGCUGGCGCCGGUUGGGCAACAUUCCGAGGGGACCGUCCCCUCGGUAAUGGCGAAUGGGACCCA [A8U C36U]	0.554
GGCCGGCAUGGUCCCAGCAUCCUCGUUGGCGCCGGCUGGGCAACAUUCCGAGGGGACCGUCCCCUCGGUAAUGGCGAAUGGGACCCA [C19A C26U]	0.929
GGCCGGCAUGGUCCCACCCUCCUUGCUGGCGCCGGCUGGGCAACAUUCCGAGGGGACCGUCCCCUCGGUAAUGGCGAAUGGGACCCA [G17C C24U]	0.106
GGCCGGCAUGGUCCCAUCCUCCUCGCUGGCGCCGGCUGGGCAACAUUCCAAGGGGACCGUCCCCUCGGUAAUGGCGAAUGGGACCCA [G17U G50A]	0.466
GGCCGGCAUGGUCCCAGCCUCCUCGCUGGCGCCGGCUGGGCAACAAUCCGAGGGGACCGUCCCCUCGGUAAUUGCGAAUGGGACCCA [U46A G73U]	0.0811
GGCCGGCAUGGUCCCAGCCUCCUGGCCGGCGCCGGCUGGGCAACAUUCCGAGGGGACCGUCCCCUCGGUAAUGGCGAAUGGGACCCA [C24G U27C]	0.0791
GGCCGGCAUGGUCCCAGCCUCCUCGCUGGCGCCUGCUGGGCAACAUUCCGAGGGGACCGUCCCCUCGGUAAUGGCGAAUGGGACCUA [G34U C86U]	0.187
AGCCGGCAUGGUCCCAGCCUCCUCGCUGGCGCCGGCUGGGCAACAUUCCGAGGGGACCGUCCCCUCGGUAAUGGUGAAUGGGACCCA [G1A C75U]	0.0639
GGCCUGCAUGGUCCCAGCCUCCUCGCUGGCGCCGGCUGGGCAACAUUCCGAGGGGACCGUCCCCUCGGUAAUGGAGAAUGGGACCCA [G5U C75A]	0.101
GGCCGGCAUGGUCCCAGCCGCCUCGCUGGCGCCGGCUGGGCAACAUUCCGAGGGGACCGUCCCAUCGGUAAUGGCGAAUGGGACCCA [U20G C64A]	0.178
GGCCUGCGUGGUCCCAGCCUCCUCGCUGGCGCCGGCUGGGCAACAUUCCGAGGGGACCGUCCCCUCGGUAAUGGCGAAUGGGACCCA [G5U A8G]	0.356
GGCCGGCAUGGUCCCAGCCUGCUCGCUGGCGACGGCUGGGCAACAUUCCGAGGGGACCGUCCCCUCGGUAAUGGCGAAUGGGACCCA [C21G C32A]	0.0415
GGCCGGCAUGGUCCCAGCCUUCUCGCUGGCGCCGGCUGGGGAACAUUCCGAGGGGACCGUCCCCUCGGUAAUGGCGAAUGGGACCCA [C21U C41G]	0.432
GGCCGGCAUGGUCCCAGCCUCCUCGCUGGCGCCGGCUGGGCAACAUUCCGAGGGGCCAGUCCCCUCGGUAAUGGCGAAUGGGACCCA [A56C C58A]	0.923
GGCCGGCAUGGUCCCAGCCUCCUCGCUGGCGCCGGCUGGGCUACAUUCCGACGGGACCGUCCCCUCGGUAAUGGCGAAUGGGACCCA [A42U G52C]	0.799
GCCCGGCAUGGUCCCAGCCUCCUCGCUGGCGCCGGCUGGGCAACAUUCCGAGGGGACCGUCUCCUCGGUAAUGGCGAAUGGGACCCA [G2C C62U]	0.0841
GGCCGGCAUGGUCCCAGCCUCCUCGCUGGCGCCGGCUGGGCAACAGUCCGAGGGGACCGUCCCCUCGGUAACGGCGAAUGGGACCCA [U46G U72C]	0.287
GGCCGGCAUGGUCCCAGCCGCCUCGCUGGCUCCGGCUGGGCAACAUUCCGAGGGGACCGUCCCCUCGGUAAUGGCGAAUGGGACCCA [U20G G31U]	0.102
GGCCGGCAUGGUCCCAGCCUCCUCGCUGGCGCCGGCUGGGCAACAUUCCGAGGGGCCCGUCCCCUCGGUAAUGGCGAAAGGGACCCA [A56C U79A]	0.554

Variant	self-cleavage
GGCCGGCAUGGUCCCAGCCUCCUCGCUGUCGCCGGCAGGGCAACAUUCCGAGGGGACCGUCCCCUCGGUAAUGGCGAAUGGGACCCA [G29U U37A]	0.0898
GGCCGGCAUGGUCCCAGCCUCCUCGCUGGCGCCGGCUGGGCAACAUUCCGAGUGGACCGUCCCCUCGGUAGUGGCGAAUGGGACCCA [G53U A71G]	0.843
GGCCGGCAUGGUCCCAGCCUCCUCGCUGGCGGCGGCUGGGCCACAUUCCGAGGGGACCGUCCCCUCGGUAAUGGCGAAUGGGACCCA [C32G A42C]	0.0678
GGCCGGCAUGGUCCCAGCCUCCUCGCUGGCGCCGGCUGGGCAACAUUCCGAGGGGACCGUCUACUCGGUAAUGGCGAAUGGGACCCA [C62U C63A]	0.927
GGCCGGCAUCGUCCGAGCCUCCUCGCUGGCGCCGGCUGGGCAACAUUCCGAGGGGACCGUCCCCUCGGUAAUGGCGAAUGGGACCCA [G10C C15G]	0.0723
GGCCGGCAUGGUCCCAGCCUCUUCGCUGGCGCCGGCUGGGCAACAUUCCGAGGGGACCGUCCCCUCGGUAAUGGCGAAUGGAACCCA [C22U G82A]	0.101
GGCCGGCAUGGUCCCAGGCUCCUCGCUGGCGCCGGCUGGGCAACAUUGCGAGGGGACCGUCCCCUCGGUAAUGGCGAAUGGGACCCA [C18G C48G]	0.175
GGCCGGCAUGGUCCCAGCCUCCUCGCUGGCGACGGCUGGGCAACAUUCCGAGGGGACCGUCCCCUCGGUAAUGGCGCAUGGGACCCA [C32A A77C]	0.219
GGCCGGCAUGAUCCCAGCCUCCUCGCUGGCGCCGGCUGGGCAACAUUCCGAGGGGACCGUCCCCUCGGUAAUGGCGAAUGGGCCCCA [G11A A83C]	0.0707
GGCCGGCAUGGUCCCAGCCUCCUCGCUGGCGCCGGGUGGGCAACAUUCCGAGGGGACCGUCCCCUCGGUAAUGGCGAAUGGGACCCG [C36G A87G]	0.138
GGCCGGCAGGGUCCCAGCCUCCUCGCAGGCGCCGGCUGGGCAACAUUCCGAGGGGACCGUCCCCUCGGUAAUGGCGAAUGGGACCCA [U9G U27A]	0.437
GGCCGGCAUGGUCCCAGCCUCCUCGCUGGCGCCGGCUGGGCAACAUUCCGAGGCGACCGUCCCCUCGGUAAUGGCGAAUCGGACCCA [G54C G80C]	0.256
GGCCGGCAUGGUCCCAGCCUCCUCGCUGGCCCCGGCUGGGCUACAUUCCGAGGGGACCGUCCCCUCGGUAAUGGCGAAUGGGACCCA [G31C A42U]	0.0707
GGCCGGUAUGGUCCCAGCCUCCUCGCUGGCGCCGGCUGGGCAACAUUCCGAGGGGACCGUCCCCUCGGUAAUGGCGAACGGGACCCA [C7U U79C]	0.126
GGCCGGAAUGGUCCCAGCCUCCUCGCUGGCGCCGGCUGGGCAACAUUCCGAGGGGACCGUCCCCUCGGUAAUGGCGAAUGAGACCCA [C7A G81A]	0.0302
GGCCGGCGUGGUCCCAGCCUCCUCGCUGGCGCCGGCUGGGCAACUUUCCGAGGGGACCGUCCCCUCGGUAAUGGCGAAUGGGACCCA [A8G A45U]	0.692
GGCCGGCAUGGUCCCUGCCUCCUCGCUGGCGCCGGCUGGGCAACAUUCCGAGGGGACCGUCCCCUCGGUAAUGGCGAAUGGGAUCCA [A16U C84U]	0.678
GGCCGGCAUGGUCCCAGCCACCUCGCUGGCGCCGGCUGGGCAACAUUCCGAGGGGACCGUCCCCUCGGUAAUGGCGAAUGGCACCCA [U20A G82C]	0
GGCCGGCAUGGUCCCAGCCUCUUCGCUGGCGCCGGCUGGGCAACAUUCCGAGGGGACCGUCCCCUCGGUAAUGGCGAAUGUGACCCA [C22U G81U]	0.04
UGCCGGCAUGGUCCCAGCCUCCUCGCUGGCGCCGGCUGGGCAACAUUCCGAGGGGACCGUCCCCUCGGUAAUGGAGAAUGGGACCCA [G1U C75A]	0.277
GGCCGGCAUGGUCCCAGCAUCCUCGCUGGCGCCGGCUGGGCAGCAUUCCGAGGGGACCGUCCCCUCGGUAAUGGCGAAUGGGACCCA [C19A A43G]	0.0354
GGCCGGCAUGGUCCCAGCCUCCUAGCUGGCGCCGGCUGGGCAACAUUCCGACGGGACCGUCCCCUCGGUAAUGGCGAAUGGGACCCA [C24A G52C]	0.803

Variant	self-cleavage
GGGCGGCAUGGUCCCAGCCUCCUCGCUGGCGCCGGCUGGGCUACAUUCCGAGGGGACCGUCCCCUCGGUAAUGGCGAAUGGGACCCA [C3G A42U]	0.116
GGCCGGCAUGGUCCCAGCCUCCUCGCUGGCGCCGGCUGGGCAACAUUCCGAGGGGACCGUCCCCUCGGUAAUGUCGAAUGGCACCCA [G74U G82C]	0.0723
GGCCGGCAUGGUCCCAGCCUCCUCGCUGGCGCCGGCUGCGCAACAUUCCGAGGGGACCGUCCUCUCGGUAAUGGCGAAUGGGACCCA [G39C C63U]	0.369
GGCCGGCAUGGUCCCAGCCUCCUCGCUGGCGCCGGCUGGGCAACAUUCCGAGGGGACCGUCCCCUCGGUAAAGGCGCAUGGGACCCA [U72A A77C]	0.199
GGCCGGCAUGGUCCCAGCCUCCUCGCUGGCGCCGGCUGGGCAACAUUACGAGGGGACCGUCCCCUCGGUAGUGGCGAAUGGGACCCA [C48A A71G]	0.791
GGCCGGCAUGGUCCCAGCCUCCUCGCUGGUGCCGGCUGGGCAACAUUCCGAGGGGACCGUCCCCUCGGUAAUGCCGAAUGGGACCCA [C30U G74C]	0.113
GGCCGGCAUGGUCCCAGCCUCCUCGCUGGCGCCGGCUGGGCAACAUUCCGAGGGGACCGUCCCUUCUGUAAUGGCGAAUGGGACCCA [C64U G67U]	0.804
GGCGAGCAUGGUCCCAGCCUCCUCGCUGGCGCCGGCUGGGCAACAUUCCGAGGGGACCGUCCCCUCGGUAAUGGCGAAUGGGACCCA [C4G G5A]	0.0519
GGCCGGCAUGGUCCCAGCCUCCUCGCUGGCGCCGGCUGGGCAACAUUCCGAGGGGACCGUACCCUCGGUAAUGGCGAAUGGGACGCA [C61A C85G]	0.988
GGCCGGCAUGGUCCCAGCCUCCUCGCUGGCGCCGGCUGGGCAACAUUCCGAUGGGACCGUCCCCUCGGUAAUGGCGAAUGGGAACCA [G52U C84A]	0.904
GGCCGGCAUGGUCCCAGCCUCCUCGCUGGCGCCGGAUGGGCAACAUUCCGAAGGGACCGUCCCCUCGGUAAUGGCGAAUGGGACCCA [C36A G52A]	0.158
GGCCGGCAUGGUCCCAGCCUCCUCGAUGGCGCCGGCUGGGCAACAUUCCGAGGGGACCGUCCCCUCGGUAAUGGAGAAUGGGACCCA [C26A C75A]	0.0415
GGCCGGCAUGGUCCCAGCCUCCUCGCUGGCGCCGGCUGGGCAACAUUCCGAGGAGACCGUCCCCUCGGUAAUGGCGAAUGGGACGCA [G54A C85G]	0.892
GGCCGGCAUGUUCCCAGCCUCCUCGCUGGCGCCGGCUGGGCAACAUUCCGAGGGGACCGUCCCCUCGGUUAUGGCGAAUGGGACCCA [G11U A70U]	0.228
UGCCGGCAUGGUCCCAGCCUCCUCGCUGGCGCCGGCUGGGCAACACUCCGAGGGGACCGUCCCCUCGGUAAUGGCGAAUGGGACCCA [G1U U46C]	0.277
AGCCGGCAUGGUCCCAGCCUCCUCGCUGGCGCCGGCUGGGCAACAUUCCGAGGGGACCGUCCCCUCGGUAAUGGCGAAAGGGACCCA [G1A U79A]	0.208
GGCCGGCAUGGUCCGAGCCUCCUCGCUGGCGCUGGCUGGGCAACAUUCCGAGGGGACCGUCCCCUCGGUAAUGGCGAAUGGGACCCA [C15G C33U]	0.415
GGCCGGCAUGGUCCCAUCCUCCUCGCUGGCGCCGGCUGGGCAACAUUCCGAGGGGACCGUCCCCUCGGUAAUGGCGACUGGGACCCA [G17U A78C]	0.131
GGCCGGCAUGGUCCCAGCCUCCUCGCUGGCGCCGGAUGGGCAACAUUCCGAGGGGACCGUCCCCUCGGUAAUGACGAAUGGGACCCA [C36A G74A]	0
GGCCGGCAUGCUCCCAGCCUCCUCGCAGGCGCCGGCUGGGCAACAUUCCGAGGGGACCGUCCCCUCGGUAAUGGCGAAUGGGACCCA [G11C U27A]	0.646
